Results from the domain aggregation screens of Martell et al. (2025).

Assay: soluble fraction after stress (log2 fold change); higher = more stays soluble; pooled small domains, quantitative proteomics
Conditions: stress: pH 4
Summary of the method: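 Values are log2 fold changes, and higher ones mean more of the domain stayed soluble. Each fold change reflects the soluble amount of a domain after acid stress and is taken as a measure of aggregation propensity. The stress was pH 4, applied to pooled custom libraries of small protein domains analysed by high-throughput quantitative proteomics.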

Sequence	soluble fraction (log2)
HMHVSIAENIRRIRTQHDMTQEEFGKVAAVSAMAVSQWENGRAVPRMGAVQRIADYFNISKGEVID	0.121
HMTKGFSIQDISLSKSTMTFLQQNKITDLASLLSMSKSQIEGMKGFKPKMIQEIEKNLDKVGLVLAQD	-0.228
HMPDKIDSAAQGILDKLIRNDGFMAVTDKSPPEAIYKLFGVSKKVFKQAIGSLYKNRLITIEDAGLRIIPQ	-0.214
HMLADRANMAPAALRQIMTAIDGGNVTPKQIESATGMAHATVARALRKMLDDGLIANDGKGRYTVLT	0.238
HMRGSRIFSGDVSPLTLPANSPFFSGYTEFKPGDVYVERSATNIAMWEWKSQPGGYTWVKTADIA	0.22
HMQETPAMLAMKELPTEDEQRIYMMLQEDYDSVLLVKTIRNAFSQNPQLTRQQLLPIILTWLMT	-1.08
HMTKRKNTEFRQQQIIEAAAKLIFKYGSEHLTVKRIAAQVGISEAAIYRHFTSKKSILSFLLSHIEE	-0.317
HMSKISKENEQQVIQIVQTLLLNVQDKSLITTQILNEKINLAVSLDTKYKENLDRDYIIEELIRRYSVW	-2.54
HMNSNSLSFSKFMQEVEAGRVIEVQIKGNDIQGELSDGSKFKTYSPNYPNLVDKLSENKVSIVATPL	0.105
HMGIGSTLTDGVRVYASDDEIVVNAPAESDVRIFNAGGAQLYAGRVADVRVAVAKGLYVVTVDGRSTKITV	0.217
HMGSNENTIREYFDSLIASASKREIMDANPTMSQRTVERILQKLQAEGYVEKIGAARSTRYRRA	-0.0919
HMIDLSELINKTGSAYTNLRPSGTAVIGDDRVDVVTEGTFVEKDRPVKVVAVEGQRVVVREVE	-0.206
HMAFIEADIGKRIKSLRNKKRITLESLAAETGFTKGYLSKVETSEKAPPVSTLGSIARALGVSISTLLGE	0.144
HMLVVEPSAELKTIIDKTASFVARNGPEFEARIKNEQNNAKFSFLQPNDPFNPYYRAKIVELGGTV	-0.174
HMLAAGTPLTVVTESSNLNIRQEPSTEAAVVGKAAKGEIVTLVEQTSGEWWKVSTKDGEEGYAYSRYL	-0.809
HMLADTNIHTIALKHRLANEVVEQVRPFLPETATIRAYDNMLILKSDRATLANVEQLIKKLDT	0.228
HMGVGIEALAVEVDRIRQVLTGGGALSDIQLFSQLKALGEVKTALSSMTDPRARELEKRVAQLLEASLRT	-0.323
HMLPQGKGTAMWLADHLAAASVTLDAGARKLLEDTLGEDMSRLPGVLRVLEATFGSDAGRLSAEDIEPFL	-1.05
HMKFTELEQLMLKREINTLADIARVLKTTPQAVSNWKARDQIPYHIVAKINASINKDSNDSSLSI	-0.782
HMQYKTRVINLSILEVGMVLGRDLINKDGKIIVKKDVAISDFLKDHLIGLSKIKEIEPQIYIKV	-0.452
HMKPAFTPYVVKVTADVLNVRSGPGTNYGITTKVKKGEAYTIVEEKNGWGKLKSGAGWISLEYTVK	-0.0552
HMVAGHLQEKNGQFYAVLSYKDTKGKRRTKWVPTGLMVRGNKKRAEAMLNDIRRKFVPPEQED	0.249
HMGQPAVSSRDVAEQFGKEHRNVIQSIKNLIAENSALTFMFIEDTYTAGTGKKYPMYYMNRDGFTLLA	-0.15
HMGMKTSQKLARQREIVRLIRAQTIRTQAELADALRERAFPVSQPTLSKDIAELGLIKVPLPDSGYRYQLP	-0.105
HMELNELTSRELMVAEQVARGASNREISEALSISERTVKAHLSAAFEKLGVRDRVQLALAMNNIPT	-0.886

Sequence	soluble fraction (log2)
HMAPVVAILTRQLPLPQAQQLAGQTALVRVVKGGPGNEAELEFAGQNIQVKLPPGRQLTAGEMVTVAFALS	-0.0882
HMIAGHLQIKNDYYYMVLSYTDSDGKRKQPWIPTGLPMKGNKKRAEKMLIETRQTYVPPVSSG	0.203
HMKVEFDAMDKRILELMAKEYDTVLMARHLPLTPIVIDVRKKRIREVLNLPDATDAEIVIEAKEKDII	-1.47
HMYSDDNKSILNLIDNLFNKENIKIDINAKKLLSNYLGVDRLVTKGEIEKAILFAGTKKHLSIEDISAFLS	-0.992
HMGRPTLEQLLDRAQAMGVPRERYAAYADRRWGRGWRVNPHGRGRAWDELDRYRNDPAGYLDKIEVELNQL	-0.0109
HMLTTIRKATVNDKTRIMEIYAYARQFMAEHGNPNQWKNNNPSEETIDNDIAKQEMYVIETDGEVHAVFY	-1.42
HMQRFIHITVSDVHQATRLLEEEMQLTNYSVAENNAIKIFEFTYEPQEINHLFGKNGIEVSSLFIGS	-0.345
HMEPAPELTPREQQVLARIALGMTDKAIAEELGVSHQTVRNHVARIYQKIKVHSRSQAVVWAREKGI	0.0801
HMDSLNWVEKIINTLPEQQRLIIQMRDIEQYEFAEIAKILEMNETAIRVALSRARKTIREFMIKTH	≥ 0.43
HMDYLYHNGKEIDQGSIMYKMEDYSDGIFELQSAKYADGTELDEKELEELESTQELIDWVMIDFVS	-1.99
HMGSDQEAAMARQDRLSTLVDYVVERGSVHVDDIVADLGVSPATVRRDLDALAAQQLIIRTRGGATANHT	-0.552
HMKIEDSNTIKLKANQAYKTHYYSEAIKLYDELLTKYEPNSEAIKLNLAHAHFKAKGFAAASKLYT	0.22
HMSIQREIILEVIKNNRTHPTAEEIYILVTKKEPKISRSTVYRNINILVEKGIIEKITIATGPDRYDY	-0.126
HMGDEHYDTISAFIKSVRGSDPDAALYWLAKMILAGEDPRFILRRLIVLSGEDIGLADPQGI	-0.346
HMRKKTYEIITDDLRRMIEAGLIRPGEKLGAIDQLAAKYRVGRSTVREALSHLKALGLVESRQGGGTYVTK	0.109
HMQDYYTQSDFARYLEDKGIHFPQNKIAVYRKRGKFPKEDLVVAGTPYWSKYTVESFAKHLLEQQN	0.302
HMAPSLQISLKQAIITAQQQHPGSKALNADFDGARGTPRYVIETLLPTGELRELTIDAQSGQVMEDHPDR	0.198
HMSVPNVVGRDQVEASSLLESAGFKVSVKQSYSDSVEQGKVISQSPSGSTTVSPGSTVTITVSQ	-0.155
HMSQDTLIGRVGVIVIGQARTGSPAQVRVKDGFGQTHYVMAEPDSEGVLKQGEAVLLVSLEGNTFKAILNP	≥ 0.43
HMQISSSEVLEKVVDEILSANPKSIEDYKNGKLQAAGFLMGQVMKATKGQANPAVAKELIEAKLKD	0.124
HMSTGYEMVREVANQGSFSKAANSLGVSGPAVSKQVKSLEERLGLVLFHRTTRAVSLTQAGRQLVDVLN	-0.036
HMTSEVPVGSNVRIRASTLAGERDFEGTMLPPAGEGLTTLKLVNGYNLSYPSKDVLDIEFLGGAGE	-0.367
HMIGAKVLVNGQLHRDSYGEGPGQTESNATRLVNYINMKGSHPYHVTTLDGGWRGWVTADSVQV	≥ 0.43
HMAQLKYEQIKSYLQAEAVKPESATRMPTVRELMRRFNVSLVTVNRALSELEHAKVIVRRQGAGIVAAQ	0.0424
HMGAGLKIGNDHEYANYLEYKVSVEKYAPGAILGEIKQKGIQFNTTISKTTFYRYITDGVFLTITNADLPV	-0.138

Sequence	soluble fraction (log2)
HMKTGNPYAQRNTADMYNYGRGIEKDSYLAFVWYFAAYKQGNDNAKPQIDSITASGHLSPNQQLHAKIE	-0.304
HMAPLATIHVSSLSQKPFYLYGTFEDRRGNHLFFLEQIMGENKSIPVAMPSSAINPKIHASLTPPKG	-0.0804
HMNESADMPDVVNMSLEAAKSQLEGMGLKVKVENVEDDSVEENHVIKTSPVSGEKVKLGTTVTLTVSKGR	-0.279
HMKNLNVIDLSALRTLELKESSDWTLIQKRFKLLVKKYHPDMNAGSKQYEEKLKKITLAYTHLKKLF	-0.715
HMIGDYALILNIKGGSDWYLGNRVELLFTDGTSKIVTTDKDYNAKKDMVPTQIVTYKVNDNGEYSLKALPT	-1.2
HMSMFSEILRTLRKAKGLTQRELAGHLGVTQQMVAKWEKGQSTPGPDQLTRMAELLEVSTDTLLGR	-0.104
HMNVAVPTPADKRKVRVMKADINAKLRVNDANGAYAVYEELKEWVTLKGFTEWNDDLSKLSETMGSMKRKV	-0.0387
HMNIDQAFISDLERMIMPDISKYELMDIISIMENSGFTIKVEGTGNEVRQVIKPGSKLKKGQKIKIKL	-1.79
HMFPDRLRELRKGRNITLETLAEEMNKHLEPGQKPNTAAQIGNWERGDRSPSYIEVRKLADFFNVSMDFL	-0.512
HMKGKDLQDAVVTVVGGAENWNAIRAWAQASASDSEKREINAAFQSGKLMATMMAERLALAYQQSG	0.0105
HMNYKNAIGQVGSVYVPIPPNREGLGQIEVKVQSRVSTVRAVSDHSERLENRVAVRVIELVDDRTLLVEKL	-1.13
HMKWYDSDKGFGFLSQEEGEDVYVRSSALPAGVEGLKAGQRVEFGIASGRRGPQALSL	-0.71
HMSNLKKRRLEKNLTLDDVGKLVGVSAATISRWESGDIENMRSDKIVKLANALEISPAVILGW	-0.641
HMVDDELTARRRVNLRRIADELGGAAAVARKTQKSVQQISSMLNGTKSFGSKIARDIEPKLGLPLQSLDKE	0.203
HMHPDHRTATVPDAAAGRRFDAVLAELFPQFSRSKLTTWIKSGEVLLNGEVPRPRDAVVGGETVSLNVVL	≥ 0.43
HMQNGNLVDVYLNWRGKYYAIKMFFPNSKMPRRSDVQDQIVKVYPDARVQSFQVSKYVPGQPFL	-0.431
HMGGPAGPDFTYTGDDLTRIDYDDGSYKVFTYDAGKLSQIDFTSGGTTTRKTFVYSGDTLIRVDQTI	-1.43
HMTDSSEILEAALKEAEDAAHEVLNGTFSVQLEPQKAYIRRLQHMLIDRMNLSSTSKGKEPYRSLLVYR	-0.601
HMQQLAEQIPTDRPYISIAEAVVLFGISRDTIYRQIRKGNIPAVNLGERLTRISRIHIEAMFPKV	-0.282
HMGAGDKQAQQASLMQIIALQKEGMALGLVEPKHLYHSFSKMIENAGFKDVQSFAVDPSTQQ	-0.199
HMRVTEVSYDKFLDMLSGGQVTVVELQENERELYFKAADENGAERIYSTGVFPDADLQKRLSESGVTF	-1.19
HMGPPLISLDDGLAKGFGVGVGDTLTINILGRRITATIASLREIDWQSLRFDFAVVLSPGVLEGA	0.063
HMQDNPELVARIEKAAARGTSSMSDWERSFMGSLLDSAKKWGRLTAKQHEVFQRIEKKTDPAHQAAVS	0.0292
HMGMAGILDSARMASFIQEKLGYGGGQIRASVMGGHGDDMVPLPRYSTVAGVPLSDVLTQNEIDEMFAQ	-0.259
HMHTDQVLVMTRAVGQGEIVRNTDVGLTSVAVDRAVTTIPASQLDEIVGRHALVDLSAGQLLGSHSVGA	-0.0551
